The values below come from the supplement of paper PMC5998384.

For data set [1], the system named is HeLa Kyoto. As to the kind of experiment: thermal stability score vs G1/S (z-score of summed log2 fold changes over temperatures); higher = more thermally stable than in G1/S.
The test system of data set [2] is HeLa Kyoto. As to the kind of experiment: solubility in G1/S (NP-40 vs SDS abundance) (log2 ratio); higher = more soluble. Particulars: cell cycle stage: G1/S.
Data set [3] has as its system HeLa Kyoto. Nature of the data set: solubility change mitosis vs G1/S (difference of NP-40 vs SDS log2 ratios) (log2 ratio difference); higher = more soluble in mitosis.
Data set [4] has as its system HeLa Kyoto. As to the kind of experiment: melting temperature (median over replicates), in situ; higher = more thermally stable.
Where [5] appears, read: cell cycle stage: early G1 (4.5 h after nocodazole release).
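Throughout, for melting temperature (median over replicates), in situ: HeLa Kyoto cells synchronized by double thymidine or nocodazole block, proteins quantified by TMT10plex mass spectrometry, three independent biological replicates.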
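Throughout, for solubility change mitosis vs G1/S (difference of NP-40 vs SDS log2 ratios): synchronized HeLa Kyoto cells (double thymidine block for G1/S, nocodazole release for mitosis), protein amounts in NP-40 versus SDS lysates quantified by mass spectrometry, three biological replicates.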
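Throughout, for solubility in G1/S (NP-40 vs SDS abundance): HeLa Kyoto cells arrested at G1/S by double thymidine block, proteins quantified by TMT10plex mass spectrometry in mild NP-40 versus SDS extracts, three biological replicates.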
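Throughout, for thermal stability score vs G1/S (z-score of summed log2 fold changes over temperatures): synchronized HeLa Kyoto cells, proteins quantified by TMT10plex mass spectrometry, three biological replicates, mitosis taken 0.5 h after nocodazole release, G1/S directly after double thymidine block.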

Sequence of BAG3 (chain, as listed by the source): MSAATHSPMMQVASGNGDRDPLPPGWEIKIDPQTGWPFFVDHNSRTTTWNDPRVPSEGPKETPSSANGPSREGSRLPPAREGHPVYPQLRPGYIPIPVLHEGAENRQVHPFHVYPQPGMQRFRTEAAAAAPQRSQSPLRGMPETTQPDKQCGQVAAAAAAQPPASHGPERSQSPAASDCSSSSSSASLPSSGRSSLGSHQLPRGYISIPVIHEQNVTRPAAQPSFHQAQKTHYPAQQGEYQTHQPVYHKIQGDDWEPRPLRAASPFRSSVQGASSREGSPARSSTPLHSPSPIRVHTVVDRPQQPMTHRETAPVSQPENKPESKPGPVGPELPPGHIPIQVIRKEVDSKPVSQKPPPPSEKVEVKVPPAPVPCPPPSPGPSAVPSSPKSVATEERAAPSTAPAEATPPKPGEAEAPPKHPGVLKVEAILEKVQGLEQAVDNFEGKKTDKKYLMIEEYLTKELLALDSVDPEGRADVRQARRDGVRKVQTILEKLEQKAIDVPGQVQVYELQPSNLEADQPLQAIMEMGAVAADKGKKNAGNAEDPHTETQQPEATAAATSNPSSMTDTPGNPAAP

Regarding “MKSNPAIQAAIDLTAGAAGGTACVLTGQPFDTMKVKMQTFPDLYRGLTDCCLKTYSQVGFRGFYKGTSPALIANIAENSVLFMCYGFCQQVVRKVAGLDKQAKLSDLQNAAAGSFASAFAALVLCPTELVKCRLQTMYEMETSGKIAKSQNTVWSVIKSILRKDGPLGFYHGLSSTLLREVPGYFFFFGGYELSRSFFASGRSKDELGPVPLMLSGGVGGICLWLAVYPVDCIKSRIQVLSMSGKQAGFIRTFINVVKNEGITALYSGLKPTMIRAFPANGALFLAYEYSRKLMMNQLEAY [SLC25A15]”, the thermal stability score with HeLa Kyoto [1] (setting [5]) is -2.21; with HeLa Kyoto [1] (cell cycle stage: mitosis), -1.66. In addition, the “solubility in G1/S (log2)” value in the data set on HeLa Kyoto [2] was found to be 0.00397. The “solubility change mitosis (log2)” value in the data set on HeLa Kyoto [3] is -0.0497. The results for the melting temperature in the data set on HeLa Kyoto [4] (cell cycle stage: G1/S) and in the data set with HeLa Kyoto [4] (cell cycle stage: mitosis) were 58 °C and 56.6 °C, respectively.

As for “MDMLDPGLDPAASATAAAAASHDKGPEAEEGVELQEGGDGPGAEEQTAVAITSVQQAAFGDHNIQYQFRTETNGGQVTYRVVQVTDGQLDGQGDTAGAVSVVSTAAFAGGQQAVTQVGVDGAAQRPGPAAASVPPGPAAPFPLAVIQNPFSNGGSPAAEAVSGEARFAYFPASSVGDTTAVSVQTTDQSLQAGGQFYVMMTPQDVLQTGTQRTIAPRTHPYSPKIDGTRTPRDERRRAQHNEVERRRRDKINNWIVQLSKIIPDCNADNSKTGASKGGILSKACDYIRELRQTNQRMQETFKEAERLQMDNELLRQQIEELKNENALLRAQLQQHNLEMVGEGTRQ [USF2]”, the results for the thermal stability score with HeLa Kyoto [1] (setting [5]) and with HeLa Kyoto [1] (cell cycle stage: mitosis) were -0.00434 and -0.248, respectively. Further, the “solubility in G1/S (log2)” value with HeLa Kyoto [2] is -0.0293. Also, in the data set with HeLa Kyoto [3], the “solubility change mitosis (log2)” value was 0.142. In addition, the values for the melting temperature in the data set on HeLa Kyoto [4] (cell cycle stage: G1/S) and in the data set with HeLa Kyoto [4] (cell cycle stage: mitosis) were 54 °C and 54.6 °C, respectively.

On to “MAAVQMDPELAKRLFFEGATVVILNMPKGTEFGIDYNSWEVGPKFRGVKMIPPGIHFLHYSSVDKANPKEVGPRMGFFLSLHQRGLTVLRWSTLREEVDLSPAPESEVEAMRANLQELDQFLGPYPYATLKKWISLTNFISEATVEKLQPENRQICAFSDVLPVLSMKHTKDRVGQNLPRCGIECKSYQEGLARLPEMKPRAGTEIRFSELPTQMFPEGATPAEITKHSMDLSYALETVLNKQFPSSPQDVLGELQFAFVCFLLGNVYEAFEHWKRLLNLLCRSEAAMMKHHTLYINLISILYHQLGEIPADFFVDIVSQDNFLTSTLQVFFSSACSIAVDATLRKKAEKFQAHLTKKFRWDFAAEPEDCAPVVVELPEGIEMG [AAR2]”, for which the thermal stability score in the data set with HeLa Kyoto [1] (setting [5]) stood at 0.316; in the data set with HeLa Kyoto [1] (cell cycle stage: mitosis) it was 1.07. In addition, the “solubility in G1/S (log2)” value in the data set with HeLa Kyoto [2] is 0.0362. Moreover, the “solubility change mitosis (log2)” value in the data set with HeLa Kyoto [3] was -0.266. The melting temperature with HeLa Kyoto [4] (cell cycle stage: G1/S) amounted to 50.2 °C; with HeLa Kyoto [4] (cell cycle stage: mitosis), 50.4 °C.

“MGCTVSAEDKAAAERSKMIDKNLREDGEKAAREVKLLLLGAGESGKSTIVKQMKIIHEDGYSEEECRQYRAVVYSNTIQSIMAIVKAMGNLQIDFADPSRADDARQLFALSCTAEEQGVLPDDLSGVIRRLWADHGVQACFGRSREYQLNDSAAYYLNDLERIAQSDYIPTQQDVLRTRVKTTGIVETHFTFKDLHFKMFDVGGQRSERKKWIHCFEGVTAIIFCVALSAYDLVLAEDEEMNRMHESMKLFDSICNNKWFTDTSIILFLNKKDLFEEKITHSPLTICFPEYTGANKYDEAASYIQSKFEDLNKRKDTKEIYTHFTCATDTKNVQFVFDAVTDVIIKNNLKDCGLF [GNAI2]”: the thermal stability score in the data set on HeLa Kyoto [1] (setting [5]) came to 0.395; with HeLa Kyoto [1] (cell cycle stage: mitosis) it was 0.061. Also, the “solubility in G1/S (log2)” value with HeLa Kyoto [2] is -0.568. Further, the “solubility change mitosis (log2)” value with HeLa Kyoto [3] was -0.242. For the same substance, the melting temperature is 53.5 °C in the data set on HeLa Kyoto [4] (cell cycle stage: G1/S) and 54.2 °C in the data set on HeLa Kyoto [4] (cell cycle stage: mitosis).

As to BAG3, the thermal stability score in the data set on HeLa Kyoto [1] (setting [5]) worked out at 1.43; in the data set on HeLa Kyoto [1] (cell cycle stage: mitosis), 5.24. Further, in the data set with HeLa Kyoto [2], the “solubility in G1/S (log2)” value is 0.185. For the same substance, the “solubility change mitosis (log2)” value in the data set on HeLa Kyoto [3] stood at 1.06. Also, the results for the melting temperature with HeLa Kyoto [4] (cell cycle stage: G1/S) and with HeLa Kyoto [4] (cell cycle stage: mitosis) were 53.6 °C and 53.1 °C, respectively.

Turning to “MSDTRRRVKVYTLNEDRQWDDRGTGHVSSTYVEELKGMSLLVRAESDGSLLLESKINPNTAYQKQQDTLIVWSEAENYDLALSFQEKAGCDEIWEKICQVQGKDPSVEVTQDLIDESEEERFEEMPETSHLIDLPTCELNKLEEIADLVTSVLSSPIRREKLALALENEGYIKKLLQLFQACENLENTEGLHHLYEIIRGILFLNKATLFEVMFSDECIMDVVGCLEYDPALAQPKRHREFLTKTAKFKEVIPITDSELRQKIHQTYRVQYIQDIILPTPSVFEENFLSTLTSFIFFNKVEIVSMLQEDEKFLSEVFAQLTDEATDDDKRRELVNFFKEFCAFSQTLQPQNRDAFFKTLAKLGILPALEIVMGMDDLQVRSAATDIFSYLVEFSPSMVREFVMQEAQQSDDDILLINVVIEQMICDTDPELGGAVQLMGLLRTLIDPENMLATTNKTEKSEFLNFFYNHCMHVLTAPLLTNTSEDKCEKDFFLKHYRYSWSFICTPSHSHSHSTPSSSISQDNIVGSNKNNTICPDNYQTAQLLALILELLTFCVEHHTYHIKNYIMNKDLLRRVLVLMNSKHTFLALCALRFMRRIIGLKDEFYNRYITKGNLFEPVINALLDNGTRYNLLNSAVIELFEFIRVEDIKSLTAHIVENFYKALESIEYVQTFKGLKTKYEQEKDRQNQKLNSVPSILRSNRFRRDAKALEEDEEMWFNEDEEEEGKAVVAPVEKPKPEDDFPDNYEKFMETKKAKESEDKENLPKRTSPGGFKFTFSHSASAANGTNSKSVVAQIPPATSNGSSSKTTNLPTSVTATKGSLVGLVDYPDDEEEDEEEESSPRKRPRLGS [PPP4R3B]”, the thermal stability score is 1.17 in the data set with HeLa Kyoto [1] (setting [5]) and 1.76 in the data set on HeLa Kyoto [1] (cell cycle stage: mitosis). For the same substance, the “solubility in G1/S (log2)” value with HeLa Kyoto [2] is 0.0425. Besides, the “solubility change mitosis (log2)” value in the data set on HeLa Kyoto [3] was -0.181. For the same substance, the melting temperature was 49.6 °C in the data set on HeLa Kyoto [4] (cell cycle stage: G1/S) and 49.5 °C in the data set on HeLa Kyoto [4] (cell cycle stage: mitosis).
